Data from publication PMC2880831.

Target: EGR1 (UniProt P18146 1-543)
Experiment: EMSA

EGR1, sequence (P18146 whole entry): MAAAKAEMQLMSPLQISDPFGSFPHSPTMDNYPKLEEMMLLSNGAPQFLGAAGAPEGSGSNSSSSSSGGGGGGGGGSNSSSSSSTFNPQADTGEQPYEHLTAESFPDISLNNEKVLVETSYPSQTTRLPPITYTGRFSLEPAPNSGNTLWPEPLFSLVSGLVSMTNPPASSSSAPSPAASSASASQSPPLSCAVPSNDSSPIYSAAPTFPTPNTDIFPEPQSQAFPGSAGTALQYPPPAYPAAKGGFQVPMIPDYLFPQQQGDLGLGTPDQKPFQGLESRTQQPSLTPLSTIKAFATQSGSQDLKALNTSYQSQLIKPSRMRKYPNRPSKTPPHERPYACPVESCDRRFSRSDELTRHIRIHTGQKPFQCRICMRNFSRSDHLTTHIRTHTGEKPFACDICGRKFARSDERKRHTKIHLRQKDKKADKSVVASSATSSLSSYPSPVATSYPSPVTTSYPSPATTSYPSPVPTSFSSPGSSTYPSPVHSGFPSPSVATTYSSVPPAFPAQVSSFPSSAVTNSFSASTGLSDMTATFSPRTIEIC

B1: FAP promoter WT -225~-205 (dsDNA)
DNA 1: CAAGAACGCCCCCAAAATCT
DNA 2: AGATTTTGGGGGCGTTCTTG
binding result: binds
